Test results reported in IntAct's records for PubMed 35512704.

B1: Mothers against decapentaplegic homolog 4 (Homo sapiens), Q13485 (parent)
chain: MDNMSITNTPTSNDACLSIVHSLMCHRQGGESETFAKRAIESLVKKLKEKKDELDSLITAITTNGAHPSKCVTIQRTLDGRLQVAGRKGFPHVIYARLWRWPDLHKNELKHVKYCQYAFDLKCDSVCVNPYHYERVVSPGIDLSGLTLQSNAPSSMMVKDEYVHDFEGQPSLSTEGHSIQTIQHPPSNRASTETYSTPALLAPSESNATSTANFPNIPVASTSQPASILGGSHSEGLLQIASGPQPGQQQNGFTGQPATYHHNSTTTWTGSRTAPYTPNLPHHQNGHLQHHPPMPPHPGHYWPVHNELAFQPPISNHPAPEYWCSIAYFEMDVQVGETFKVPSSCPIVTVDGYVDPSGGDRFCLGQLSNVHRTEAIERARLHIGKGVQLECKGEGDVWVRCLSDHAVFVQSYYLDREAGRAPGDAVHKIYPSAYIKVFDLRQCHRQMQQQAATAQAAAAAQAAAVAGNIPGPGSVGGIAPAISLSAAAGIGVDDLRRLCILRMSFVKGWGPDYPRQSIKETPCWIEIHLHRALQLLDEVLHTMPIADPQPLD

Variants of: B1
Settings: with maga6_human MAGEA6, P43360

Variant	effect of a mutation on the interaction
R361H	with no effect

Variants of: B1
Settings: with mp2k7_human MAP2K7, O14733
Sequence of mp2k7_human MAP2K7, O14733 (O14733 whole entry): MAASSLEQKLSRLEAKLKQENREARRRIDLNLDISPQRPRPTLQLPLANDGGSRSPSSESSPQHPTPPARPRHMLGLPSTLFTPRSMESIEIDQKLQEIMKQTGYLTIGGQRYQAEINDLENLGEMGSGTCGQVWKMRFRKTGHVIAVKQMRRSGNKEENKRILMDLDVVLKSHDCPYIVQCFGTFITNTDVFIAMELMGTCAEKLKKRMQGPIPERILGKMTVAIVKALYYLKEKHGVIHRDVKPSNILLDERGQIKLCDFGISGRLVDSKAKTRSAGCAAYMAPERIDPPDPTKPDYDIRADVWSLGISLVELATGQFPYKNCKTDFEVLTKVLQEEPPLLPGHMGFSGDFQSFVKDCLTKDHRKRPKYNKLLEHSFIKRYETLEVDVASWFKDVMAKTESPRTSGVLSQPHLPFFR

Variant	effect of a mutation on the interaction
R361H	with no effect

Variants of: B1
Settings: with m3k1_human MAP3K1, Q13233

Variant	effect of a mutation on the interaction
R361H	with no effect

Variants of: B1
Settings: with mk10_human MAPK10, P53779

Variant	effect of a mutation on the interaction
R361H	with no effect

Variants of: B1
Settings: with mk14_human MAPK14, Q16539

Variant	effect of a mutation on the interaction
R361H	with no effect

Variants of: B1
Settings: with mk03_human MAPK3, P27361
Sequence of mk03_human MAPK3, P27361 (P27361 whole entry): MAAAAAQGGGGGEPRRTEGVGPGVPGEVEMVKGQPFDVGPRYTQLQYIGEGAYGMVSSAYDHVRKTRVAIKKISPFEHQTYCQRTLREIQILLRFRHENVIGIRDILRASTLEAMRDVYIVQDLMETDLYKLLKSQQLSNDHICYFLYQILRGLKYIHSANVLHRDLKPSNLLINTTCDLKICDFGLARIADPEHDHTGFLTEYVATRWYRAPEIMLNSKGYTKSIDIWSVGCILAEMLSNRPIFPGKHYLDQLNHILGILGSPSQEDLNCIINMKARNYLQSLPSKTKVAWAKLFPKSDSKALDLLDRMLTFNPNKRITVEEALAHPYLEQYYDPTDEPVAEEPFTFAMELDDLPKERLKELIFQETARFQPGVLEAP

Variant	effect of a mutation on the interaction
R361H	with no effect

Variants of: B1
Settings: with mk04_human MAPK4, P31152
Sequence of mk04_human MAPK4, P31152 (P31152 whole entry): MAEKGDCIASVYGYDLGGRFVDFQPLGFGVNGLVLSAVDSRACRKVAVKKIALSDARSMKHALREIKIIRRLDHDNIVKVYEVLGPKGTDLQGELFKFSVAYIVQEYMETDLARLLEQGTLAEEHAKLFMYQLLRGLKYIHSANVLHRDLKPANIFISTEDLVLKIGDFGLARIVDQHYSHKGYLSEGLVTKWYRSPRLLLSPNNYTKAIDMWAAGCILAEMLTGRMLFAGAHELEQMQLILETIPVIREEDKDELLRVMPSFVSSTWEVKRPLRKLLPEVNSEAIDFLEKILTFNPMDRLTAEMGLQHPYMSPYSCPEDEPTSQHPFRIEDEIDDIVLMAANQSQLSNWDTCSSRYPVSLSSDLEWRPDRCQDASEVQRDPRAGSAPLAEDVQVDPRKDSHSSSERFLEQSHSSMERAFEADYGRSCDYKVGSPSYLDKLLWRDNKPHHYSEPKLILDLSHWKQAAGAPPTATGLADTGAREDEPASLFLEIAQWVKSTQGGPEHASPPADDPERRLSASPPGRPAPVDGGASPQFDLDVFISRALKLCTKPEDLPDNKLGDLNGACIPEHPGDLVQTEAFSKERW

Variant	effect of a mutation on the interaction
R361H	with no effect

Variants of: B1
Settings: with mk06_human MAPK6, Q16659

Variant	effect of a mutation on the interaction
R361H	with no effect

Variants of: B1
Settings: with mk07_human MAPK7, Q13164

Variant	effect of a mutation on the interaction
R361H	with no effect

Variants of: B1
Settings: with mcl1_human MCL1, Q07820

Variant	effect of a mutation on the interaction
R361H	with no effect

Variants of: B1
Settings: with myc_human MYC

Variant	effect of a mutation on the interaction
R361H	with no effect

Variants of: B1
Settings: with nf1_human NF1, P21359

Variant	effect of a mutation on the interaction
R361H	with no effect

Variants of: B1
Settings: with merl_human NF2, P35240

Variant	effect of a mutation on the interaction
R361H	with no effect

Variants of: B1
Settings: with nfic_human NFIC

Variant	effect of a mutation on the interaction
R361H	with no effect

Variants of: B1
Settings: with nsd3_human NSD3, Q9BZ95

Variant	effect of a mutation on the interaction
R361H	with no effect

Variants of: B1
Settings: with pak3_human PAK3, O75914

Variant	effect of a mutation on the interaction
R361H	with no effect

Variants of: B1
Settings: with pax5_human PAX5, Q02548

Variant	effect of a mutation on the interaction
R361H	with no effect

Variants of: B1
Settings: with pax9_human PAX9, P55771
Sequence of pax9_human PAX9, P55771 (P55771 whole entry): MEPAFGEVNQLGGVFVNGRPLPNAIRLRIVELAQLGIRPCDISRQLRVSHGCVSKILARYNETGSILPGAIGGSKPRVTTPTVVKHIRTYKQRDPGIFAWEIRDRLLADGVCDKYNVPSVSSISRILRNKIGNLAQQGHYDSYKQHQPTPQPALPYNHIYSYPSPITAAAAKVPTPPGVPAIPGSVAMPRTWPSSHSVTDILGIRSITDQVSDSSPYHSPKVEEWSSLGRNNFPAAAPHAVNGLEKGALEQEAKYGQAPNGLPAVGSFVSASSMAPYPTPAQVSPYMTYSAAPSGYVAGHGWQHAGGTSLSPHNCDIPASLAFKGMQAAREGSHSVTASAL

Variant	effect of a mutation on the interaction
R361H	with no effect

Variants of: B1
Settings: with pcbp1_human PCBP1, Q15365

Variant	effect of a mutation on the interaction
R361H	with no effect

Variants of: B1
Settings: with pgfra_human PDGFRA

Variant	effect of a mutation on the interaction
R361H	with no effect

Variants of: B1
Settings: with pgfrb_human PDGFRB

Variant	effect of a mutation on the interaction
R361H	with no effect

Variants of: B1
Settings: with pdk1_human PDK1, Q15118

Variant	effect of a mutation on the interaction
R361H	with no effect

Variants of: B1
Settings: with PIK3C2B

Variant	effect of a mutation on the interaction
R361H	with no effect

Variants of: B1
Settings: with pk3c3_human PIK3C3, Q8NEB9

Variant	effect of a mutation on the interaction
R361H	with no effect

Variants of: B1
Settings: with pk3ca_human PIK3CA

Variant	effect of a mutation on the interaction
R361H	with no effect

Variants of: B1
Settings: with pk3cg_human PIK3CG

Variant	effect of a mutation on the interaction
R361H	with no effect

Variants of: B1
Settings: with p85a_human PIK3R1, P27986

Variant	effect of a mutation on the interaction
R361H	with no effect

Variants of: B1
Settings: with p85b_human PIK3R2, O00459
Sequence of p85b_human PIK3R2, O00459 (O00459 whole entry): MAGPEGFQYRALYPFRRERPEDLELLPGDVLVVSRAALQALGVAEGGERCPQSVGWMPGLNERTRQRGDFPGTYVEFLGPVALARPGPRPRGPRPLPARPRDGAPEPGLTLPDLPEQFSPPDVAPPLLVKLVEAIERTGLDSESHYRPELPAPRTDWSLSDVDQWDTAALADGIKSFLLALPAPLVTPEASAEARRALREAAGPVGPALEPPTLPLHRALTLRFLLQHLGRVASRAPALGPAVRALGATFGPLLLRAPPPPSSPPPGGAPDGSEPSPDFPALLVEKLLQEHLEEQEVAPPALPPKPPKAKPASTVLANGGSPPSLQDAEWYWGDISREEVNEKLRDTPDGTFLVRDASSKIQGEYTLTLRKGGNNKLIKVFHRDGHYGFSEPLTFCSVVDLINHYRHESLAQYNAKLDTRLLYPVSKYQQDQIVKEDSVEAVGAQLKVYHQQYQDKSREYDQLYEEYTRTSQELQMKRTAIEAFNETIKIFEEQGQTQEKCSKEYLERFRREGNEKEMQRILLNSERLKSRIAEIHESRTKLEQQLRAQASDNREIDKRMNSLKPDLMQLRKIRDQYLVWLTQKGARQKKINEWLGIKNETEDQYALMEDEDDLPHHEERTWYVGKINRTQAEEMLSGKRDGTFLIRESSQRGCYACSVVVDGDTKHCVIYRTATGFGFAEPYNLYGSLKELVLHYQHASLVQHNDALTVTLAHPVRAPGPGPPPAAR

Variant	effect of a mutation on the interaction
R361H	with no effect

Variants of: B1
Settings: with dpod1_human POLD1, P28340

Variant	effect of a mutation on the interaction
R361H	with no effect

Variants of: B1
Settings: with dpoe1_human POLE

Variant	effect of a mutation on the interaction
R361H	with no effect

Variants of: B1
Settings: with lipa1_human PPFIA1, Q13136

Variant	effect of a mutation on the interaction
R361H	with no effect

Variants of: B1
Settings: with 2aaa_human PPP2R1A

Variant	effect of a mutation on the interaction
R361H	with no effect

Variants of: B1
Settings: with prdm1_human PRDM1, O75626

Variant	effect of a mutation on the interaction
R361H	with no effect

Variants of: B1
Settings: with aapk2_human PRKAA2, P54646

Variant	effect of a mutation on the interaction
R361H	with no effect

Variants of: B1
Settings: with prss8_human PRSS8, Q16651

Variant	effect of a mutation on the interaction
R361H	with no effect

Variants of: B1
Settings: with ptk6_human PTK6, Q13882

Variant	effect of a mutation on the interaction
R361H	with no effect

Variants of: B1
Settings: with tf65_human RELA

Variant	effect of a mutation on the interaction
R361H	with no effect

Variants of: B1
Settings: with rnf43_human RNF43, Q68DV7

Variant	effect of a mutation on the interaction
R361H	with no effect

Variants of: B1
Settings: with ros1_human ROS1, P08922

Variant	effect of a mutation on the interaction
R361H	with no effect

Variants of: B1
Settings: with rl5_human RPL5, P46777

Variant	effect of a mutation on the interaction
R361H	with no effect

Variants of: B1
Settings: with runx1_human RUNX1, Q01196

Variant	effect of a mutation on the interaction
R361H	with no effect

Variants of: B1
Settings: with ruvb1_human RUVBL1, Q9Y265

Variant	effect of a mutation on the interaction
R361H	with no effect

Variants of: B1
Settings: with rxra_human RXRA

Variant	effect of a mutation on the interaction
R361H	with no effect

Variants of: B1
Settings: with sdha_human SDHA

Variant	effect of a mutation on the interaction
R361H	with no effect

Variants of: B1
Settings: with setb1_human SETDB1, Q15047

Variant	effect of a mutation on the interaction
R361H	with no effect

Variants of: B1
Settings: with sf3b1_human SF3B1, O75533

Variant	effect of a mutation on the interaction
R361H	with no effect

Variants of: B1
Settings: with skp2_human SKP2, Q13309

Variant	effect of a mutation on the interaction
R361H	with no effect

Variants of: B1
Settings: with smad1_human SMAD1, Q15797
Sequence of smad1_human SMAD1, Q15797 (Q15797 whole entry): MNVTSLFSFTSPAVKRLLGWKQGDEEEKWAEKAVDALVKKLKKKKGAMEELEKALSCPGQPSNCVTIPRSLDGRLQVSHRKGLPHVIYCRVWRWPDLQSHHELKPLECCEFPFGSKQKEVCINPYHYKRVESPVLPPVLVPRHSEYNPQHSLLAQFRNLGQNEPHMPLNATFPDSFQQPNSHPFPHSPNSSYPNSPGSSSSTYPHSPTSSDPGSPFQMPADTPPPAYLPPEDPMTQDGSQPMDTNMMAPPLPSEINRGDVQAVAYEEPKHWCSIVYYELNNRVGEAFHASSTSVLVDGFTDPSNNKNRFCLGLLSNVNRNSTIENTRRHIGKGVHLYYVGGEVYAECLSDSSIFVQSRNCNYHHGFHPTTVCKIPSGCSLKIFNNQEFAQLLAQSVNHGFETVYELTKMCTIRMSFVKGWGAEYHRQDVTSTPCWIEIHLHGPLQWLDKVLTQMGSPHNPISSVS

Variant	effect of a mutation on the interaction
R361H	with no effect

Variants of: B1
Settings: with smad2_human SMAD2, Q15796

Variant	effect of a mutation on the interaction
R361H	with no effect

Variants of: B1
Settings: with smad3_human SMAD3, P84022
Sequence of smad3_human SMAD3, P84022 (P84022 whole entry, looked up): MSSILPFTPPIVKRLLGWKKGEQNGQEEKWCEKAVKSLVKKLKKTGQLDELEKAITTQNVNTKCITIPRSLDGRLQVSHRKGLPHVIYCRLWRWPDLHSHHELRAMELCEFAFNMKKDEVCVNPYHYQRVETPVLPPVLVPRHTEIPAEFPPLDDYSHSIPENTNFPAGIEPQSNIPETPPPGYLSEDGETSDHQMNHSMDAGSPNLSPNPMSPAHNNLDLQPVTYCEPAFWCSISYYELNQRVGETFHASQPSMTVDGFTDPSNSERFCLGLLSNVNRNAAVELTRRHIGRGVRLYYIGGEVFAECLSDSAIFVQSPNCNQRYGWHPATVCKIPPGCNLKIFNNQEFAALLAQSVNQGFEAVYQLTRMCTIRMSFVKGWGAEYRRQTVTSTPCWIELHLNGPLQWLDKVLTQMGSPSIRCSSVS

Variant	effect of a mutation on the interaction
R361H	with no effect

Variants of: B1
Settings: with smca4_human SMARCA4, P51532
Sequence of smca4_human SMARCA4, P51532 (P51532 whole entry): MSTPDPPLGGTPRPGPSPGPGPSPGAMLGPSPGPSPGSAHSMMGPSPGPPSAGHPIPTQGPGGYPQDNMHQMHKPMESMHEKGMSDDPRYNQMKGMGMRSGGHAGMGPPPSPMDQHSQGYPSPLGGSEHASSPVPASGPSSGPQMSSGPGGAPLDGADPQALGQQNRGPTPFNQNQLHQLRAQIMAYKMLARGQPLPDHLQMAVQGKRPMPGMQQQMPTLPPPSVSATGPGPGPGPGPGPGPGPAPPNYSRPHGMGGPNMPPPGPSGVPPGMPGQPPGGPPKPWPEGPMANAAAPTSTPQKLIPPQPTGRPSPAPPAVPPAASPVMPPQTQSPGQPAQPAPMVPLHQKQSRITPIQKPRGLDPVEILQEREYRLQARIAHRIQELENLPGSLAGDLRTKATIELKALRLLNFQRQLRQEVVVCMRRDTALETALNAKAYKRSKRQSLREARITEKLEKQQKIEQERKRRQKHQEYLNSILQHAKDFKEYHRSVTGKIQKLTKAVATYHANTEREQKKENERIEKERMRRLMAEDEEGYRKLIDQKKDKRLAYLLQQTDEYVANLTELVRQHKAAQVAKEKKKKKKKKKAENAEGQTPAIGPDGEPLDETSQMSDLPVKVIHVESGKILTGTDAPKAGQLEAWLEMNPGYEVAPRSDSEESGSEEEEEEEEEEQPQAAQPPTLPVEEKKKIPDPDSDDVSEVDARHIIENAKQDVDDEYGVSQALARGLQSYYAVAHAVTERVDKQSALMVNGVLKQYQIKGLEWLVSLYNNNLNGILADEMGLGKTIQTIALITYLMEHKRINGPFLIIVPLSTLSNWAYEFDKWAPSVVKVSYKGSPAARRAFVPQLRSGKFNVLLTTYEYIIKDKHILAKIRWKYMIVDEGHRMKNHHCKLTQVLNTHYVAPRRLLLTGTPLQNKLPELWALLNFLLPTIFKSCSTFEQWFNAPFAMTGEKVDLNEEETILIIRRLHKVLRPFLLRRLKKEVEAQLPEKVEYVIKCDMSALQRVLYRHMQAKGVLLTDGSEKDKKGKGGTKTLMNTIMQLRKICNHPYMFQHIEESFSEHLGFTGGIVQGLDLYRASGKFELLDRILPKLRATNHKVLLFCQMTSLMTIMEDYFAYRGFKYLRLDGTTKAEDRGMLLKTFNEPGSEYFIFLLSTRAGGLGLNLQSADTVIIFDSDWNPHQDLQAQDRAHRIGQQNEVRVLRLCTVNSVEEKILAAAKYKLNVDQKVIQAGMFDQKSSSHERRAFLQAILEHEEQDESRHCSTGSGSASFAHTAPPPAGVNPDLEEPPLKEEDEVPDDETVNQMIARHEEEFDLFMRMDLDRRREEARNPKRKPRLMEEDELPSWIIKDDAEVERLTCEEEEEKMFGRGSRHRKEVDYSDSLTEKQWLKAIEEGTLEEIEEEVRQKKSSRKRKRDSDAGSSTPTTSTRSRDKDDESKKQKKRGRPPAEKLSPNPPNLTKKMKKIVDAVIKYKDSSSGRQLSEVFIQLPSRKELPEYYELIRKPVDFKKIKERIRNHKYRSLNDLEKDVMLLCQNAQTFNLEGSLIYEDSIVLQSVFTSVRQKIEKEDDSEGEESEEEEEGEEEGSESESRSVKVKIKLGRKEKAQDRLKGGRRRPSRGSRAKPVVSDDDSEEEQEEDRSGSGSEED

Variant	effect of a mutation on the interaction
R361H	with no effect

Variants of: B1
Settings: with snf5_human SMARCB1, Q12824

Variant	effect of a mutation on the interaction
R361H	with no effect

Variants of: B1
Settings: with smo_human SMO

Variant	effect of a mutation on the interaction
R361H	with no effect

Variants of: B1
Settings: with sox10_human SOX10, P56693

Variant	effect of a mutation on the interaction
R361H	with no effect

Variants of: B1
Settings: with sox2_human SOX2, P48431

Variant	effect of a mutation on the interaction
R361H	with no effect

Variants of: B1
Settings: with sox3_human SOX3, P41225

Variant	effect of a mutation on the interaction
R361H	with no effect

Variants of: B1
Settings: with sox4_human SOX4, Q06945

Variant	effect of a mutation on the interaction
R361H	with no effect

Variants of: B1
Settings: with sox9_human SOX9, P48436

Variant	effect of a mutation on the interaction
R361H	with no effect

Variants of: B1
Settings: with spop_human SPOP

Variant	effect of a mutation on the interaction
R361H	with no effect

Variants of: B1
Settings: with src_human SRC

Variant	effect of a mutation on the interaction
R361H	with no effect

Variants of: B1
Settings: with stat3_human STAT3, P40763

Variant	effect of a mutation on the interaction
R361H	with no effect

Variants of: B1
Settings: with stk38_human STK38, Q15208

Variant	effect of a mutation on the interaction
R361H	with no effect

Variants of: B1
Settings: with ksyk_human SYK

Variant	effect of a mutation on the interaction
R361H	with no effect

Variants of: B1
Settings: with eloc_human ELOC

Variant	effect of a mutation on the interaction
R361H	with no effect

Variants of: B1
Settings: with tfe2_human TCF3, P15923

Variant	effect of a mutation on the interaction
R361H	with no effect

Variants of: B1
Settings: with tead1_human TEAD1, P28347

Variant	effect of a mutation on the interaction
R361H	with no effect

Variants of: B1
Settings: with tead2_human TEAD2, Q15562

Variant	effect of a mutation on the interaction
R361H	with no effect

Variants of: B1
Settings: with tead3_human TEAD3, Q99594

Variant	effect of a mutation on the interaction
R361H	with no effect

Variants of: B1
Settings: with tgfr2_human TGFBR2, P37173

Variant	effect of a mutation on the interaction
R361H	with no effect

Variants of: B1
Settings: with tnr14_human TNFRSF14, Q92956

Variant	effect of a mutation on the interaction
R361H	with no effect

Variants of: B1
Settings: with tpx2_human TPX2, Q9ULW0

Variant	effect of a mutation on the interaction
R361H	with no effect

Variants of: B1
Settings: with trrap_human TRRAP

Variant	effect of a mutation on the interaction
R361H	with no effect

Variants of: B1
Settings: with tsc2_human TSC2, P49815

Variant	effect of a mutation on the interaction
R361H	with no effect

Variants of: B1
Settings: with tshr_human TSHR

Variant	effect of a mutation on the interaction
R361H	with no effect

Variants of: B1
Settings: with vhl_human VHL

Variant	effect of a mutation on the interaction
R361H	with no effect

Variants of: B1
Settings: with wt1_human WT1, P19544

Variant	effect of a mutation on the interaction
R361H	with no effect

Variants of: B1
Settings: with wwtr1_human WWTR1, Q9GZV5

Variant	effect of a mutation on the interaction
R361H	with no effect

Variants of: B1
Settings: with xpo1_human XPO1, O14980

Variant	effect of a mutation on the interaction
R361H	with no effect

Variants of: B1
Settings: with 1433b_human YWHAB

Variant	effect of a mutation on the interaction
R361H	with no effect

Variants of: B1
Settings: with 1433e_human YWHAE

Variant	effect of a mutation on the interaction
R361H	with no effect

Variants of: B1
Settings: with 1433z_human YWHAZ

Variant	effect of a mutation on the interaction
R361H	with no effect

Variants of: B1
Settings: with smad3_human SMAD3, P84022
Remark: another data set of the same source

Variant	effect of a mutation on the interaction
R361H	decreasing interaction strength
